The target in one test is HLA-A*02:01. Nature of the test: IEDB peptide-MHC binding, purified MHC/competitive/radioactivity; ≥ and ≤ were set here for values at or beyond the usual limits of such assays. As to conditions: source organism: Lassa virus Josiah.
For a further test, the target named is HLA-A*68:02. Nature of the test: IEDB peptide-MHC binding, purified MHC/competitive/radioactivity; filed as Kd, often an IC50 or EC50 that approximates it; ≥ and ≤ were set here for values at or beyond the usual limits of such assays.
The next test concerns the target HLA-A*02:02. The test can be described thus: IEDB peptide-MHC binding, purified MHC/competitive/radioactivity; ≥ and ≤ were set here for values at or beyond the usual limits of such assays.
The target in a further test is HLA-A*02:03. The description is as above.
Another test has as its target HLA-A*02:06. The description is as above.
[1] abbreviates: source organism: Lassa virus Josiah.
Where [2] appears, read: source organism: Lassa virus GA391.

As for GLYKQPGVPV, in the test with HLA-A*02:01, the IC50 worked out at 89 nM.
The same measure, in the same setting: next, GLYNFATCGL: 31 nM.
On the same count and under the same terms, under IISTFHLSI stands 330 nM; under ILAADLEKL, 92 nM; under LIALSVLAV, 102 nM.
On the same count and under the same terms, next, LMSIISTFHL: 113 nM.
For the sequence SLYKGVYEL, in the test with HLA-A*68:02 (setting [1]), the Kd is no less than 10000 nM. Moreover, the IC50 turned out to be 47 nM with HLA-A*02:01, 115 nM in the test with HLA-A*02:02 (setting [1]), 12 nM with HLA-A*02:03 (setting [1]) and 395 nM in the test with HLA-A*02:06 (setting [1]).
As to VLIALSVLAV, in the test with HLA-A*02:01, the IC50 is 485 nM.
On to YLISIFLHL, for which, in the test with HLA-A*68:02 (setting [2]), the Kd was 6660 nM. In addition, the IC50 in the test with HLA-A*02:01 worked out at 14 nM; in the test with HLA-A*02:02 (setting [2]) it was 173 nM; with HLA-A*02:03 (setting [2]) it was 11 nM; with HLA-A*02:06 (setting [2]), 10 nM.

These data come from the Immune Epitope Database (IEDB).
